The values below come from patent US20180334496A1 (KODIAK SCIENCES, published 2018).

The target in experiment [1] is T1, human Complement Factor D (serum purified) (human, UniProt P00746 26-253). Kind of experiment: cell-based or functional assay.
In experiment [2] the target is T1, human Complement Factor D (serum …). Kind of experiment: KinExA in solution, 37 degrees; free CFD captured on OG1931 beads and detected with KCD004-A647.
The target is the same in experiment [3]. The experiment in a line: SPR (Biacore), conjugate captured on Protein A chip, serum purified human CFD as analyte, 25 degrees. In general terms: In SPR one partner is held on a chip, and binding of the other changes the refractive index at the surface.
Experiment [4] has as its target Histidine-tagged FcγRI (UniProt P12314 16-288, limits assumed). The experiment in a line: SPR (Biacore T200, 25 C), His-tagged FcγRI captured on anti-His CM5 chip, antibody injected, single cycle kinetics.
The target in experiment [5] is T2, human Complement Factor D (CFD), purified from human serum (human, UniProt P00746 26-253). The experiment in a line: cell-based or functional assay.
T2 sequence (P00746 26-253): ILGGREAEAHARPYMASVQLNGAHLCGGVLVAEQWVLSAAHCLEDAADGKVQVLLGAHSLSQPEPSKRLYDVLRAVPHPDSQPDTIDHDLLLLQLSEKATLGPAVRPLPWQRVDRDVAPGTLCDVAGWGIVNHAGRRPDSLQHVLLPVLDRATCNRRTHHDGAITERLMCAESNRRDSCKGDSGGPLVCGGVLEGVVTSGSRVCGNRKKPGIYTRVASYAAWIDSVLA
Experiment [6] addresses T3, purified human C1q (human, UniProt P02745 23-245; P02746 28-253; P02747 29-245).
T3 construct: also called Complement C1q
The experiment in a line: ELISA, antibody coated in a 1:2 titration from 10 ug/mL, purified human C1q at 5 ug/mL, HRP anti-human C1q. For orientation: ELISA stands for enzyme-linked immunosorbent assay.

Experiment [7] concerns the target Histidine-tagged FcγRIIIa (UniProt P08637 17-208, limits assumed). The experiment in a line: SPR (Biacore T200, 25 C), His-tagged FcγRIIIa captured on anti-His CM5 chip, antibody injected, single cycle kinetics.
Experiment [8] addresses T4, recombinant human CFD mutant 1 (R157A, R207A), His-tagged (human, UniProt P00746 26-253).
T4 construct: positions are linear positions in the mature protein; also called rhCFD-mut1-His; Mut1
Kind of experiment: SPR MX96.

Experiment [9] has as its target T5, recombinant human CFD, His-tagged (human, UniProt P00746 26-253).
T5 construct: also called rhCFD-His
The experiment in a line: SPR MX96.

Experiment [10] concerns the target T6, recombinant cynomolgus CFD, His-tagged (cynomolgus).
T6 construct: also called rcyCFD-His; recombinant Cyno-CFD
Kind of experiment: SPR MX96.

Experiment [11] addresses T7, human complement factor D purified from serum (human, UniProt P00746 26-253).
T7 construct: serum-purified (CompTech); also called hCFD-Comptech; CFD
Kind of experiment: SPR MX96.

The target of experiment [12] is T7, human complement factor D purified from ….
The target in experiment [13] is T4, recombinant human CFD mutant 1 (R157A, …). Kind of experiment: ELISA.
Experiment [14] shares this target. The experiment in a line: ELISA, Mut1 Binding, Bin 3.
The target in experiment [15] is T7, human complement factor D purified from …. This is another data set of the same source.
Experiment [16] has as its target T4, recombinant human CFD mutant 1 (R157A, …). The experiment in a line: ELISA. The source holds these as a separate data set.
Experiment [17] has as its target T8, serum purified human Complement Factor D (human, UniProt P00746 26-253).
T8 construct: Serum purified protein flowed over the captured antibodies; also called CFD; human CFD
Kind of experiment: SPR Biacore, antibody on protein A chip, single cycle kinetics, 37 C.

Experiment [18] deals with T8, serum purified human Complement Factor D. Kind of experiment: SPR Biacore, antibody on protein A chip, single cycle kinetics, 37 C; earlier run in the table (r34, Rmax 17.1).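 Further: antibodies captured on the protein A surface to roughly 70 RU in HBS-EP+ buffer, with rate and affinity constants fitted using BIAevaluation software.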
The target is the same in experiment [19]. The experiment in a line: SPR Biacore, antibody on protein A chip, single cycle kinetics, 25 C.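 Further: antibodies captured to roughly 70 RU on the protein A surface in HBS-EP+ running buffer, with kinetic constants derived by BIAevaluation fitting.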
For experiment [20] the target is unchanged. Kind of experiment: SPR Biacore, antibody on protein A chip, single cycle kinetics, 25 C; earlier run in the table (r34, Rmax 14.8).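 Further: antibodies captured to roughly 70 RU on the protein A surface in HBS-EP+ running buffer, with kinetic constants derived by BIAevaluation fitting.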
For experiment [21], the target named is T2, human Complement Factor D (CFD), …. Kind of experiment: SPR Biacore, full-length IgG captured on protein A chip, serum purified CFD.
Experiment [22] shares this target. The experiment in a line: SPR MX96, mAbs amine-coupled, CFD injected.

Where a chain is given by its changes, count along the chain named. Names may count otherwise. “And” between values parts separate entries of the source, which are not always exact repeats. Equal entries are not always repeated. Where two headings read alike, the source gives them in different places.

T5 sequence (P00746 26-253 limits assumed): as the sequence (P00746 26-253) above
T7 sequence (P00746 26-253): as above
T1 sequence (P00746 26-253): as above
T8 sequence (P00746 26-253): as above
T4 sequence (P00746 26-253 R182A/R232A limits assumed): as the sequence (P00746 26-253) above, with R157A, R207A counted along it
Histidine-tagged FcγRIIIa, sequence (P08637 17-208 limits assumed): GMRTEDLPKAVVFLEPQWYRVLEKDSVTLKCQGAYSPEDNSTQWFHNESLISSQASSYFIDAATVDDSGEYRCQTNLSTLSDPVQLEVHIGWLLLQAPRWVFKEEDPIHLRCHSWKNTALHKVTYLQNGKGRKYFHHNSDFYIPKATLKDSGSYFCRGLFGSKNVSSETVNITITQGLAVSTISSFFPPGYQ
Histidine-tagged FcγRI, sequence (P12314 16-288 limits assumed): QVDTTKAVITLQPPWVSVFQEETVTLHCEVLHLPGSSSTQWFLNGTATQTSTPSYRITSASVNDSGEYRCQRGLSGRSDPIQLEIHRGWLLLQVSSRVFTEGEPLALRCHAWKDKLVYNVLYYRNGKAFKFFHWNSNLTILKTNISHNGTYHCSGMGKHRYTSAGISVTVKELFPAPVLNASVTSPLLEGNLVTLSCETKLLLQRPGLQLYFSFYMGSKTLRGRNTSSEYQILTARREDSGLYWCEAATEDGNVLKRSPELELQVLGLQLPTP
T3 sequence (P02745 23-245 limits assumed, chain 1 of 3): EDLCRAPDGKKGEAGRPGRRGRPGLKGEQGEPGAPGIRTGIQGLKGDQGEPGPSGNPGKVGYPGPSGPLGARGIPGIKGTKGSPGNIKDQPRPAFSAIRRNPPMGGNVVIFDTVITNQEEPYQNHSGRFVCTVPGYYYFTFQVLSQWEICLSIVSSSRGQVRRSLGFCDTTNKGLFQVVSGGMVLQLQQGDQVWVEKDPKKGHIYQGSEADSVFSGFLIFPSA
T3 sequence (P02746 28-253 limits assumed, chain 2 of 3): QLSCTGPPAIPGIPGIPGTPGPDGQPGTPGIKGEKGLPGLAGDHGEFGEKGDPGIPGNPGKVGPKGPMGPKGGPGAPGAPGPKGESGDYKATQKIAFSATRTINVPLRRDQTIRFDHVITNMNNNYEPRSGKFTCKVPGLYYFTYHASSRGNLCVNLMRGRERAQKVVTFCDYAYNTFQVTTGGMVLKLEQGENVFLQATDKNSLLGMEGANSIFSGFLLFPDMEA
T3 sequence (P02747 29-245 limits assumed, chain 3 of 3): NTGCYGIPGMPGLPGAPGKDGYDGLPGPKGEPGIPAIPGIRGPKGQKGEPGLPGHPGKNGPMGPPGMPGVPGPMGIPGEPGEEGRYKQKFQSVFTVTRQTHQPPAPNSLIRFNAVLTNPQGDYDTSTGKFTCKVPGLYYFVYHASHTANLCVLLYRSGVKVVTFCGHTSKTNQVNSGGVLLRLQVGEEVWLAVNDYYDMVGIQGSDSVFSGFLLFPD

B1: OG1970 (other)
heavy: EVQLVESGGGLVQPGGSLRLSCAASGYTFTDYYINWVRQAPGKGLEWIGDINPITGDTDYNADFKRRFTFSLDTSKSTAYLQMSSLRAEDTAVYYCTREGPSFAYWGQGTLVTVSSASTKGPSVFPLAPSSKSTSGGTAALGCLVKDYFPEPVTVSWNSGALTSGVHTFPAVLQSSGLYSLSSVVTVPSSSLGTQTYICNVNHKPSNTKVDKKVEPKSCDKTHTCPPCPAPEAAGAPSVFLFPPKPKDTLMISRTPEVTCVVVDVSHEDPEVKFNWYVDGVEVHNAKTKPREEQYNSTYRVVSVLTVLHQDWLNGKEYKCKVSNKALPAPIEKTISKAKGQPREPQVYTLPPSREEMTKNQVSLTCLVKGFYPSDIAVEWESNGQPENNYKTTPPVLDSDGSFFLYSKLTVDKSRWQQGNVFSCSVMHEALHNHYTQKSLSCSPGK
light: DIQLTQSPSSLSASVGDRVTITCRSSQTIVHSNGDTYLEWYQQKPGKAPNLLIRKVSNRFSGVPSRFSGSGSGTDFTLTISSLQPEDFATYYCFQGSHVPVTFGQGTKVEIKRTVAAPSVFIFPPSDEQLKSGTASVVCLLNNFYPREAKVQWKVDNALQSGNSQESVTEQDSKDSTYSLSSTLTLSKADYEKHKVYACEVTHQGLSSPVTKSFNRGEC
modifications: polymer OG1802 (9-arm HEMA-PC polymer, about 750-800 kDa, maleimide) bonded through the sulfhydryl of C443 (EU numbering; 442C in SEQ ID NO: 183), on one of the heavy chains
notes: Antibody-polymer conjugate: decapped OG1965 conjugated to polymer OG1802; The stoichiometry of antibody to polymer is described as 1:1; also called OG1965 bioconjugate; OG1965 conjugated to polymer OG1802
B1: in experiment [1], the “EC50 (nM) in hemolysis assay (rabbit RBC, normal human serum)” value came to 1.65 nM. In [2], binding was characterised by a dissociation constant (Kd) of 0.00807 nM and the kon turned out to be 3.67e+07 M⁻¹ s⁻¹. In experiment [3], binding was put at a Kd of 0.00614 nM and the kon came out at 2.16e+07 M⁻¹ s⁻¹.

B2: OG1965 (antibody, IgG1)
heavy: B1 heavy
light: B1 light
notes: humanized IgG1 kappa with L234A, L235A, G237A and L443C (EU); also called 34I54I59D84S/54R101V; 34I54I59D84S (heavy) / 54R101V (light)
As to B2, the binding result in [4] is on record as “no binding”; in [6] it was “no binding (tested: 10 ug/mL)”; in experiment [7], “no binding”. Besides, the “EC50, block of C3bB cleavage (Bb ELISA)” value in experiment [5] is 1.9 nM. Moreover, in experiment [5], the “EC50, block of Factor B cleavage (western blot)” value came to 7 nM.

B3: KCD070 (antibody, V domains shown)
VH: EIQLQQTGPELVKPGASVKISCKASGYSFTDYIILWVKQSHGKSLEWIGNINPYYDYTSYNLKFKGKATLTVDKSSSTAYMQLNSLTSEDSAVYYCARSDGYYGGDYWGQGTSVTVSS
VL: DIVMTQSHKFMSTSVGDRVSITCKASQDVGTAVAWYQQKPGQSPKLLIYWASTRHTGVPDRFTGSGSGTDFTLTINNVQSEDLADYFCQQYSSYPWTFGGGTTLEIK
notes: chimeric
With B3, the Kd in experiment [8] was determined as 0.7 nM; in [9], 3.3 nM; in experiment [10] it was 4.9 nM; in experiment [11], 3.8 nM; in experiment [12] it was 1.77 nM. Further, the “Mut1 Binding (% wt)” value in experiment [13] stood at 84.6 % wt.

B4: KCD009 (antibody, V domains shown)
VH: QIQLVQSGPELKKPGETVKISCKASGYIFRNYGMNWVKQGPGKGLKWMGWINTYTGEPTYADDFKGRFAFSLETSASTAYLQISNLKNEDTATYFCVRDGPGFAYWGQGTLVTVSA
VL: DVLMTQTPLSLPVSLGDQASISCRSSLIIEHSDGNTYLEWYLQKPGQSPKLLIYKVSNRFSGVPDRFSGSGSGTDFTLKISRVEADDLGVYYCFQGSHVPVTFGAGTNLELK
notes: chimeric
For B4, the binding result in experiment [14] is listed as “no binding”. Moreover, the Kd amounted to 4 nM in experiment [9], 9.9 nM in experiment [10], 5.6 nM in [11] and 3.47 nM in [15]. Further, the “Mut1 Binding (% wt)” value in experiment [16] was 5.15 % wt.

B5: KCD023 (antibody, V domains shown)
VH: EVLLQQSGPELVKPGASVKIPCKASGYTFTDYNIDWVKQSHGKSLEWIGDINPNNGGINYNQKFKGKATLTVDKSSSTAYMELRSLTSEDTAVYYCGTGDYAYWGQGTLVTVSA
VL: QIVLTQSPAFMSASPGEKVTLTCSASSSVSSSYLYWYQQKPGSSPKLWIYSTSNLASGVPGRFSGSGSGTSYSLTISSMEAEDAASYFCHQWTSYPPTFGAGTKLELK
notes: chimeric
Turning to B5, the binding result in experiment [14] is reported as “no binding”. Further, the Kd worked out at 4.1 nM in experiment [9], 6 nM in experiment [10], 5.3 nM in experiment [11] and 1770 nM in experiment [15]. Besides, the “Mut1 Binding (% wt)” value in [16] is 7.64 % wt.

B6: 54I59D / 54G101V (antibody, V domains shown)
VH: EVQLVESGGGLVQPGGSLRLSCAASGYTFTDYYMNWVRQAPGKGLEWIGDINPITGDTDYNADFKRRFTFSLDTSKSTAYLQMNSLRAEDTAVYYCTREGPSFAYWGQGTLVTVSS
VL: DIQLTQSPSSLSASVGDRVTITCRSSQTIVHSNGDTYLEWYQQKPGKAPNLLIGKVSNRFSGVPSRFSGSGSGTDFTLTISSLQPEDFATYYCFQGSHVPVTFGQGTKVEIK
notes: KCD119 TAF variant; full antibody captured on protein A; also called 54I59D / 4G101V 5
Consider B6, for which the kon in [17] is 2.78e+07 M⁻¹ s⁻¹ and 1.36e+07 M⁻¹ s⁻¹; in experiment [19], 1.15e+07 M⁻¹ s⁻¹ and 5.91e+06 M⁻¹ s⁻¹. In addition, the Kd in experiment [18] was determined as 0.00774 nM; in [20], 0.00833 nM. Besides, the koff in [19] was 9.56e-05 s⁻¹.

B7: KCD119 TAF (antibody, V domains shown)
VH: B6 VH with I54N, D59S
VL: B6 VL with G54Y, V101P
notes: full IgG captured on protein A; also called TAF KCD119; KCD119 CDRs grafted into the TAF framework
For B7, in [21], the Kd was 0.23 nM.

B8: KCD048 (antibody, V domains shown)
VH: EVQLQQSGADLVKPGASVKLSCTASGFNIKATYMHWVRQRPEKGLEWIGRIDPANGHTIYDPQFQGKATITSDTSSNTAYLQLNSLTSEDTAVYYCAEAMDYWGQGTSVTVSS
VL: QIVLTQSPAIMSASPGEKVTLTCSATSSVSYMYWYQQKPGSSPRLLIYDTSNLASGVPVRFSGSGSGTSYSLTISRMEAEDDATYYCQQWSNYPFTFGGGTKLEIK
notes: chimeric
On to B8, for which the Kd stood at 0.83 nM in experiment [8], 21 nM in experiment [10], 1.9 nM in experiment [11] and 0.997 nM in experiment [12]. Further, the “Mut1 Binding (% wt)” value in experiment [13] amounted to 62.3 % wt.

B9: KCD119 (antibody, V domains shown)
VH: EVQLQQSGPELVKPGASVKISCKASGYTFTDYYTNWMRQRHGESLEWIGDINPNTGDTSYNQKFRVKATLTVDKSSGTAYMGLRSLTSEDSAVYYCTREGPSFAYWGQGTLVTVSA
VL: DVLMTQTPLSLPVSLGDQASISCRSSQTIVHSNGDTYLEWYLQKPGQSPNLLIYKVSNRFSGVPDRFSGSGSGTDFTLKISRVEAEDLGVYYCFQGSHVPPTFGGGTTLEIK
notes: mouse variable domains; full IgG, captured on protein A; also called KCD119-mouse monoclonal antibody; Mouse KCD119
As for B9, the Kd was 0.375 nM and 0.857 nM in experiment [22]; 0.04 nM in experiment [21].

As usually defined, the Kd is the free concentration of one partner at which half of the binding sites on the other are occupied at equilibrium, for simple one-to-one binding. In general, kon refers to the rate constant with which the complex forms. Low values mean slower complex formation, high ones faster complex formation. In general, koff refers to the rate constant with which the complex falls apart.
